Source: patent publication US20240027467A1 (VIB VZW, published 2024)

Experiments:
[1] = target: T1, native human coagulation factor IX (human, UniProt P00740 47-461); experiment: displacement of native factor IX from immobilised CA11143 (NANEX column) by 1 mg MegaBody CA16383; A280, SDS-PAGE and western blot [D00046 FIG. 42B; D00047 FIG. 42C]
T1 construct: Native protein captured from plasma; also called FIX
Experimental: (§1) 30 mL of human recovered plasma treated with ACD anticoagulant was loaded on this NANEX column by recirculation for 120 minutes. […] FIG. 42B) SDS-PAGE of representative fractions of the purification and FIG. 42C) the western blot of these fractions. MW, molecular weight marker (PageRuler™ Prestained Protein Ladder); and asterisk (*), commercial native human coagulation factor IX (used as control).
(§2) The purification process was monitored by measuring the absorbance at 280 nm (Protein absorption) (FIGS. 42A-42C). The elution peak was collected in 750 μl fractions and the fractions were analyzed in SDS/PAGE gel and by western blot including a commercial human coagulation factor IX as a positive control (FIGS. 42A-42C). Regeneration of the column was obtained by 5 CV of 200 mM Glycine buffer pH 2.3.

[2] = target: EPEA-tagged GFP (GFP-EPEA) protein; experiment: BLI; analyte not stated
GFP protein [3] = target: T2, GFP protein (Aequorea victoria (Water jellyfish) …, UniProt P42212 1-238 = GFP); experiment: BLI
T2 construct: Purified GFP used as BLI analyte, in crystals and in NANEX; also called Green fluorescent protein
Experimental: (§3) Streptavidin-coated Octet® biosensors were used to capture biotinylated Nanobodies (1 μg/mL). Binding and dissociation isotherms at several GFP concentrations (1 nM to 5 μM range) were analyzed on an OctetRed (molecular devices). All assays were performed in Hepes 25 mM pH7.5, NaCl 150 mM supplemented with BSA 0.1% and Tween²⁰ 0.005% at room temperature.

GFP protein [4] = target: T2, GFP protein; experiment: BLI (OctetRed), biotinylated Nb on streptavidin sensor, GFP as analyte
Experimental: as §3

[5] = target: T3, CA16976 eGFP-tagged human recombinant androgen receptor (eGFP-6His-TEV-ARb) (human); experiment: NANEX column: HEK293T lysate with GFP-ARb on immobilised CA15816; A280/A488
T3 construct: Expressed in HEK293T cells, captured from the lysate; also called GFP-ARb; eGFP-ARb
Experimental: 10 mL of lysate was injected on this NANEX column. […] FIG. 45A) The elution of GFP-GR by this stripper was monitored by following the absorbance at 280 nm and 488 nm. […] The right peak eluted upon regeneration with 200 mM glycine at pH 2.3. FIG. 45B) SDS-PAGE of the different purification fractions, molecular weight marker (PageRuler™ Prestained Protein Ladder).
Recombinant human eGFP-6His-TEV-AR was expressed using a pcDNA3.1+N-eGFP vector transfected into human HEK239T cells. Cells were transfected in 150×21 mm dishes (Nunclon™ Delta) using X-tremeGENE™ 9 DNA Transfection Reagent (XTG9-RO Roche) with a ratio 3:1 μL/μg DNA. After transfection, HEK239T cells were grown for 48 h at 37° C. and 5% CO₂. Cells from 3 plates were collected by pipetting and centrifugation, washed with PBS and resuspended in 10 mL lysis buffer 10 mM Hepes 7.5, 2.5 mM DTT, 1 mM EDTA, 20 mM Na₂MoO₄, 10% Glycerol (supplemented with protease inhibitors) before lysis using a Dounce homogenizer. […] Next, the column was washed with 10 CVs of washing buffer (10 mM Hepes 7.5, 2.5 mM DTT, 1 mM EDTA, 20 mM Na₂MoO₄, 10% Glycerol) using a syringe.

[6] = target: T4, CA16607 eGFP-tagged human recombinant glucocorticoid receptor (eGFP-6His-TEV-GR) (human); experiment: NANEX column: HEK293T lysate with GFP-GR on immobilised CA15816; A280/A488, SDS-PAGE, western blot [D00049 FIG. 44B]
T4 construct: Expressed in HEK293T cells, captured from the lysate; also called GFP-GR; eGFP-GR

[7] = target: T1, native human coagulation factor IX; experiment: NANEX column: 30 mL human plasma recirculated over immobilised CA11143; A280, SDS-PAGE and western blot [D00046 FIG. 42B; D00047 FIG. 42C]
Experimental: as §1, §2

[8] = target: T1, native human coagulation factor IX; experiment: NANEX column: 30 mL human recovered plasma recirculated over immobilised MegaBody CA16388; A280, SDS-PAGE and western blot [D00048 FIG. 43B; D00048 FIG. 43C]
Experimental: The purification process was monitored by measuring the absorbance at 280 nm (Protein absorption) (FIGS. 43A-43C). The elution peak was collected in 750 μl fractions and analysed in SDS/PAGE gel and western blot including commercial human coagulation factor IX as a control (FIGS. 43A-43C).

T1 sequence (P00740 47-461 limits assumed): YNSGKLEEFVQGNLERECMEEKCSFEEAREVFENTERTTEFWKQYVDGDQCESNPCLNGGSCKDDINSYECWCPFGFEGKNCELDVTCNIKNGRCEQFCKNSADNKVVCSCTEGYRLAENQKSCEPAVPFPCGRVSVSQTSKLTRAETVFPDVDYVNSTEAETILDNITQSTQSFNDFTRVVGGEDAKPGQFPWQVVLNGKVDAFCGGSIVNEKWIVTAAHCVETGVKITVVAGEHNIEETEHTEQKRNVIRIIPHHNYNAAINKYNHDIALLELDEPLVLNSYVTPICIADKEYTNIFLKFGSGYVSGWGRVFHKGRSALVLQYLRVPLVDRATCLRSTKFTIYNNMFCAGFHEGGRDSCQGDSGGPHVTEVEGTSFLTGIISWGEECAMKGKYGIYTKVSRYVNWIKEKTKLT
T4 sequence (chain, as listed by the source limits assumed): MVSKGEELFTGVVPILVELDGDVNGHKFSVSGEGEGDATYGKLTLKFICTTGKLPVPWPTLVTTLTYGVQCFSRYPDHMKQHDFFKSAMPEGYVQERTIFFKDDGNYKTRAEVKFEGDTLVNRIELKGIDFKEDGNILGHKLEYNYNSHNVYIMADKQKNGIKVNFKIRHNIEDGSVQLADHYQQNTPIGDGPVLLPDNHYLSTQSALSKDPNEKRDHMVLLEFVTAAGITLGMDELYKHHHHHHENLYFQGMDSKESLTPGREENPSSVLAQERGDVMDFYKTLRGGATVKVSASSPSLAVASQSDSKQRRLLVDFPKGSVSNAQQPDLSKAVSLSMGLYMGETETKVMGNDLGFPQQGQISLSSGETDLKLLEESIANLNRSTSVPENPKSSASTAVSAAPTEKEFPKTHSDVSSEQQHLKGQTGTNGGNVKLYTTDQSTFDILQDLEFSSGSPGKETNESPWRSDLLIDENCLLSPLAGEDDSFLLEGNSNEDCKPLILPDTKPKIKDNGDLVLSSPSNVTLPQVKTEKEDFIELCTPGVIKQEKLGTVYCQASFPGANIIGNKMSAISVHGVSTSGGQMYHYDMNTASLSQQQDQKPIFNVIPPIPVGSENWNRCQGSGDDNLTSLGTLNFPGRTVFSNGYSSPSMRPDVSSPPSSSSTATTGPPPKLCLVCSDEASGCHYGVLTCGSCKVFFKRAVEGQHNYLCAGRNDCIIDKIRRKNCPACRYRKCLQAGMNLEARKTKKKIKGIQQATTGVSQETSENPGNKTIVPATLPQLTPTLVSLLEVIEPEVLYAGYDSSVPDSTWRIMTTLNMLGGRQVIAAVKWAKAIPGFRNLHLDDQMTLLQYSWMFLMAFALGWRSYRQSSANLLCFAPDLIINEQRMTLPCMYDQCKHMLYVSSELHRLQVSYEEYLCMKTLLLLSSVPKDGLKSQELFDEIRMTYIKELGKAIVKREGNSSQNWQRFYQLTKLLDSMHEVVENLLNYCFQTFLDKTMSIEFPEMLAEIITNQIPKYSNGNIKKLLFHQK
T3 sequence (chain, as listed by the source limits assumed): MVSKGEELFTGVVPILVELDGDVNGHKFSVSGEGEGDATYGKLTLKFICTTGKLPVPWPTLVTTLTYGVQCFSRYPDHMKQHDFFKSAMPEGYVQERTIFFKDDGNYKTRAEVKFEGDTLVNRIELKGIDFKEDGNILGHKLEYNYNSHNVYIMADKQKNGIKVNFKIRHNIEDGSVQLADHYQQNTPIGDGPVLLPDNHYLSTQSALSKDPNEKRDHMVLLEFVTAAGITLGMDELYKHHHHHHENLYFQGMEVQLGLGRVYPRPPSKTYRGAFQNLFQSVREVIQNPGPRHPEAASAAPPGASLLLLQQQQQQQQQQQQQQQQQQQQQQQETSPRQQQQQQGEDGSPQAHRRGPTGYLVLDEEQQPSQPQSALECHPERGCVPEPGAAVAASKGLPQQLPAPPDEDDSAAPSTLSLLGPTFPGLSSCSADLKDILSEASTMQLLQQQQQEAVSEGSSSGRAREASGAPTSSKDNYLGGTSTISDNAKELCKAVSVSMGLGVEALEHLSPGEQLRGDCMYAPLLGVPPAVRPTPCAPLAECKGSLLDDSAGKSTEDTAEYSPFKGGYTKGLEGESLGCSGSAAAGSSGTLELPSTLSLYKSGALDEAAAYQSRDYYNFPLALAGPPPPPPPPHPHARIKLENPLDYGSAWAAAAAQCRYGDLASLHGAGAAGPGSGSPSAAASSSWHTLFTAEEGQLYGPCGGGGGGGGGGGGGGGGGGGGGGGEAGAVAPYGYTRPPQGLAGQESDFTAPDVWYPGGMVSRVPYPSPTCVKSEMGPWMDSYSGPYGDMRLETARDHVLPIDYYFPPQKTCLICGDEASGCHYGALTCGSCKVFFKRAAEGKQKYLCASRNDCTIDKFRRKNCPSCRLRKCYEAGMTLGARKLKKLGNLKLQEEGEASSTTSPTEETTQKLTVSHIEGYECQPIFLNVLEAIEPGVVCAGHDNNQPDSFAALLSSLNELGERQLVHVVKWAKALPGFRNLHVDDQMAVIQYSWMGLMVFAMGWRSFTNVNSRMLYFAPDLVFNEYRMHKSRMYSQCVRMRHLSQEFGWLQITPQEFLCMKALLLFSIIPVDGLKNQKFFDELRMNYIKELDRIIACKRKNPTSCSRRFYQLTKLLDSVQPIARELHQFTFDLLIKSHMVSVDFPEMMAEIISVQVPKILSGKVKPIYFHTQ

B1: CA16383 FIX functionalized Nanobody stripper (MegaBody MbCA10309^YgjK, including C-terminal 6xHis+EPEA tag) (other)
chain: QVQLVESGGGLVKEETQSGLNNYARVVEKGQYDSLEIPAQVAASWESGRDDAAVFGFIDKEQLDKYVANGGKRSDWTVKFAENRSQDGTLLGYSLLQESVDQASYMYSDNHYLAEMATILGKPEEAKRYRQLAQQLADYINTCMFDPTTQFYYDVRIEDKPLANGCAGKPIVERGKGPEGWSPLFNGAATQANADAVVKVMLDPKEFNTFVPLGTAALTNPAFGADIYWRGRVWVDQFWFGLKGMERYGYRDDALKLADTFFRHAKGLTADGPIQENYNPLTGAQQGAPNFSWSAAHLYMLYNDFFRKQASGGGSGGGGSGGGGSGNADNYKNVINRTGAPQYMKDYDYDDHQRFNPFFDLGAWHGHLLPDGPNTMGGFPGVALLTEEYINFMASNFDRLTVWQDGKKVDFTLEAYSIPGALVQKLTAKDVQVEMTLRFATPRTSLLETKITSNKPLDLVWDGELLEKLEAKEGKPLSDKTIAGEYPDYQRKISATRDGLKVTFGKVRATWDLLTSGESEYQVHKSLPVQTEINGNRFTSKAHINGSTTLYTTYSHLLTAQEVSKEQMQIRDILARPAFYLTASQQRWEEYLKKGLTNPDATPEQTRVAVKAIETLNGNWRSPGGAVKFNTVTPSVTGRWFSGNQTWPWDTWKQAFAMAHFNPDIAKENIRAVFSWQIQPGDSVRPQDVGFVPDLIAWNLSPERGGDGGNWNERNTKPSLAAWSVMEVYNVTQDKTWVAEMYPKLVAYHDWWLRNRDHNGNGVPEYGATRDKAHNTESGEMLFTVKKSLRLSCATSGIGFSIYSMGWYRQAPGKERELVASIAGNEDKDYVESVKGRFTISRDYAKNTLYLEMSGLKFEDTAMYYCAAGLRRGVSLTPYYWGQGTQVTVSSHHHHHHEPEA
notes: also called MegaBody CA16383
binding result [1]: binds

B2: CA4375, EPEA-NbSyn2 (C-term. 6xHis) (VHH)
VHH: QVQLQESGGGSVQAGGSLRLSCAASGIDSSSYCMGWFRQRPGKEREGVARINGLGGVKTAYADSVKDRFTISRDNAENTVYLQMNSLKPEDTAIYYCAAKFSPGYCGGSWSNFGYWGQGTQVTVSS
notes: Selected against human alpha-synuclein; also called monovalent CA4375; EPEA-specific Nanobody
Kd [2]: 60 nM

B3: CA15816 GFP-NbT54A/V55A (C-term. 6xHis + EPEA) (VHH)
VHH: QVQLVESGGGLVQAGGSLRLSCAASGRTFSTAAMGWFRQAPGKERDFVAGIYWAAGSTYYADSAKGRFTISRDNAKNTVYLQMDSLKPEDTAVYYCAARRRGFTLAPTRANEYDYWGQGTQVTVSS
modifications: biotinylated for BLI
notes: T54A/V55A mutant of CA12760; also called Nb CA15816
Half-time ratio (relative to the wt Nb CA12760) (GFP protein [3]): 70 fold
KD ratio (relative to the wt Nb CA12760) (GFP protein [3]): 50 fold
Kd (GFP protein [4]): 2.7 nM
koff (GFP protein [4]): 0.00225 s⁻¹
kon (GFP protein [4]): 835000 M⁻¹ s⁻¹
binding result [5]: binds
binding result [6]: binds

B4: CA11143 FIX Nanobody trapper (including C-terminal 6xHis+EPEA tag) (VHH)
VHH: QVQLVESGGALVQPGGSLRLSCAASGFTFDNYAMNWVRQAPGKGLEWVSGINWNGRNTYYAESVKDRFTISRDNAKNTLYLQMNSLKSEDTAVYYCAKEIITSGGPTGKYDYWGQGTQVTVSS
notes: also called Nb CA11143
binding result [7]: binds

B5: CA16388 FIX functionalized Nanobody trapper (MegaBody MbCA11143^YgjK, including C-terminal 6xHis+EPEA tag) (other)
chain: QVQLVESGGGLVKEETQSGLNNYARVVEKGQYDSLEIPAQVAASWESGRDDAAVFGFIDKEQLDKYVANGGKRSDWTVKFAENRSQDGTLLGYSLLQESVDQASYMYSDNHYLAEMATILGKPEEAKRYRQLAQQLADYINTCMFDPTTQFYYDVRIEDKPLANGCAGKPIVERGKGPEGWSPLFNGAATQANADAVVKVMLDPKEFNTFVPLGTAALTNPAFGADIYWRGRVWVDQFWFGLKGMERYGYRDDALKLADTFFRHAKGLTADGPIQENYNPLTGAQQGAPNFSWSAAHLYMLYNDFFRKQASGGGSGGGGSGGGGSGNADNYKNVINRTGAPQYMKDYDYDDHQRFNPFFDLGAWHGHLLPDGPNTMGGFPGVALLTEEYINFMASNFDRLTVWQDGKKVDFTLEAYSIPGALVQKLTAKDVQVEMTLRFATPRTSLLETKITSNKPLDLVWDGELLEKLEAKEGKPLSDKTIAGEYPDYQRKISATRDGLKVTFGKVRATWDLLTSGESEYQVHKSLPVQTEINGNRFTSKAHINGSTTLYTTYSHLLTAQEVSKEQMQIRDILARPAFYLTASQQRWEEYLKKGLTNPDATPEQTRVAVKAIETLNGNWRSPGGAVKFNTVTPSVTGRWFSGNQTWPWDTWKQAFAMAHFNPDIAKENIRAVFSWQIQPGDSVRPQDVGFVPDLIAWNLSPERGGDGGNWNERNTKPSLAAWSVMEVYNVTQDKTWVAEMYPKLVAYHDWWLRNRDHNGNGVPEYGATRDKAHNTESGEMLFTVKKSLRLSCAASGFTFDNYAMNWVRQAPGKGLEWVSGINWNGRNTYYAESVKDRFTISRDNAKNTLYLQMNSLKSEDTAVYYCAKEIITSGGPTGKYDYWGQGTQVTVSSHHHHHHEPEA
notes: also called MegaBody CA16388
binding result [8]: binds
